Results: paper PMC8614738 (2021)

Biological target: oligomeric EF-Tu (^OligoEF-Tu), unfolded (UniProt P0CE47 1-394)
Assay: ITC; 20 °C

Sequence of oligomeric EF-Tu (^OligoEF-Tu), unfolded (P0CE47 whole entry): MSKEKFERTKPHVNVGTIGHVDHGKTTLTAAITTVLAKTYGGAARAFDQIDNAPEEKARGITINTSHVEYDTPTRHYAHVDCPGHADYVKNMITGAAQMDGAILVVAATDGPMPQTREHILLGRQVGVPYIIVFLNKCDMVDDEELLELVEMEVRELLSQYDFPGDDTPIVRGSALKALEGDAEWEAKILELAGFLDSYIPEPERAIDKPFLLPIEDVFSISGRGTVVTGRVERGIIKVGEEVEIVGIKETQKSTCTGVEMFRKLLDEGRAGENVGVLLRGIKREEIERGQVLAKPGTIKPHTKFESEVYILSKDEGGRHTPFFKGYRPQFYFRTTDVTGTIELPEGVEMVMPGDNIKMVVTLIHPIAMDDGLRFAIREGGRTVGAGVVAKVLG

B1: trigger factor (TF) (natural protein)
chain: MQVSVETTQGLGRRVTITIAADSIETAVKSELVNVAKKVRIDGFRKGKVPMNIVAQRYGASVRQDVLGDLMSRNFIDAIIKEKINPAGAPTYVPGEYKLGEDFTYSVEFEVYPEVELQGLEAIEVEKPIVEVTDADVDGMLDTLRKQQATWKEKDGAVEAEDRVTIDFTGSVDGEEFEGGKASDFVLAMGQGRMIPGFEDGIKGHKAGEEFTIDVTFPEEYHAENLKGKAAKFAINLKKVEERELPELTAEFIKRFGVEDGSVEGLRAEVRKNMERELKSAIRNRVKSQAIEGLVKANDIDVPAALIDSEIDVLRRQAAQRFGGNEKQALELPRELFEEQAKRRVVVGLLLGEVIRTNELKADEERVKGLIEEMASAYEDPKEVIEFYSKNKELMDNMRNVALEEQAVEAVLAKAKVTEKETTFNELMNQQA
In the case of B1, the Kd is reported as 1860 nM.
